Our source for the protein stability index values is the supplement of paper PMC10567573.

± gives the standard deviation.

The data set is described as follows: protein stability index of a GFP-peptide fusion (GPS, HEK-293T) (PSI 1-6); higher = more stable.
Where [1] appears, read: treatment: DMSO, c terminus: a fixed tail appended.
Setting [2] is: treatment: MLN4924 1 uM, 8 h, c terminus: a fixed tail appended.
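Note: 24-mer peptide tiles fused after GFP, lentivirally expressed, FACS-sorted into six equal bins by GFP/DsRed ratio, decoded by Illumina sequencing, PSI is the read-weighted mean bin number.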

In the case of PIRSISLRSCYFSDPDCSMRPTLI [FBXO39], the protein stability index under setting [1] was found to be 2.13 ± 0.36 and the protein stability index under setting [2] is 2.07 ± 0.27.
The matching figures for PKAQPQTWKSGKQTMLSHYRPFYV [TRIM29]: 2.57 ± 0.17 and 2.06 ± 0.39.
With PKKIMPEAHSHYLYGHMLSAFRD [PPFIA4], the protein stability index was determined as 2.35 ± 0.23 (treatment: DMSO, c terminus: native) and 2.77 ± 0.35 (treatment: MLN4924 1 uM, 8 h, c terminus: native).
PKNGRHAWIWHDCHRHYHSMEVFT [LOXL2] came in with a protein stability index under setting [1] of 2.28 ± 0.24 and a protein stability index under setting [2] of 2.4 ± 0.17.
The like results for PKYQLFVPQLVTGRCATRAFHRKS [RNF180] were, in that order, 2.14 ± 0.34 and 2.21 ± 0.28.
The like results for PLELLPGGPARPLGPGPAAPRLLK [CEBPD] were, in that order, 4.33 ± 0.12 and 4.54 ± 0.14.
The like results for PLLLRLPRICQRNLMSLLMAVRPS [FANCE] were, in that order, 2.45 ± 0.34 and 2.56 ± 0.062.
Take PLLSPLLASRNPCPWHYLHLSGSH [RSPH3]: the protein stability index runs as follows: under setting [1], 2.15 ± 0.23; under setting [2], 2.01 ± 0.2.
The like results for PLMKPHRPWADTCSSSGKDGNLCL [HESX1] were, in that order, 2.74 ± 0.16 and 2.69 ± 0.21.
Regarding PLPAAAVVHVSFPEVTSALLESLN [ZBTB22], the protein stability index by setting is: under setting [1], 2.41 ± 0.25; under setting [2], 2.27 ± 0.26.
The like results for PNLASDSDLSRRSSSTMSKSEYME [KCNA1] were, in that order, 5.16 ± 0.27 and 5.22 ± 0.16.
For PNLVNLIEVFRRKRKMHLVFEYCD [CDKL4], the protein stability index worked out at 2.06 ± 0.64 under setting [1] and 2.07 ± 0.3 under setting [2].
The like results for PNRVLAPEQSLKKTKTSEYPIIFV [SPANXN3] were, in that order, 2.22 ± 0.17 and 2.12 ± 0.34.
The matching figures for PNTLYEGGYFKAHIKFPIDYPYSP [UBE2R2]: 2.26 ± 0.13 and 2.21 ± 0.27.
The like results for PNYTMEGERPEEGVAGGLNRNQGL [TCF25] were, in that order, 5.22 ± 0.15 and 5.22 ± 0.37.
PPEPLSQVSMWDQRWQDHQPLLPI [APBB1IP]: the protein stability index runs as follows: under setting [1], 2.76 ± 0.75; under setting [2], 3.72 ± 1.1.
On to PPITEVESQVFSEKLATDTSTFEA [ZNF232], for which the protein stability index runs as follows: under setting [1], 5.33 ± 0.2; under setting [2], 5.26 ± 0.083.
The like results for PPPPPPHNSGPPPPPARGRGAPPP [WASL] were, in that order, 5.14 ± 0.2 and 5.19 ± 0.16.
The sequence PPRGRSEAPDSLNGPLGPSEASIA [SMG5] came in with a protein stability index under setting [1] of 5.07 ± 0.27 and a protein stability index under setting [2] of 5.12 ± 0.14.
The matching figures for PPVLSFRLVHTTAIEHFQPNADLL [FCHO1]: 2.54 ± 0.15 and 2.17 ± 0.25.
The matching figures for PQAPPASRDEAALPELLLGALPVG [RETREG3]: 4.64 ± 0.087 and 4.67 ± 0.16.
The like results for PQDRYKAVWLIFFMLGLGTLLPWN [SLC29A1] were, in that order, 3 ± 0.27 and 3.29 ± 0.37.
Consider PQEKLWQQLRRGRYVEFNLLYDRG [CPOX], for which the protein stability index is 2.56 ± 0.11 under setting [1] and 2.55 ± 0.42 under setting [2].
The like results for PQGLFRGGKSGELEQEEERLSKEW [CHGA] were, in that order, 5.19 ± 0.39 and 5.42 ± 0.19.
As for PRETLCTELVLSDCMLSEEGATLL [LRRC45], the protein stability index turned out to be 3.65 ± 0.2 under setting [1] and 3.83 ± 0.11 under setting [2].
Turning to PRMCRYVRERDRLGNEYPKLHYPE [CDC25A], the protein stability index is, setting by setting: under setting [1], 3.08 ± 0.12; under setting [2], 3.15 ± 0.34.
For PRQADHDDHECCERVVINISGLRF [KCNA1], the protein stability index amounted to 3.1 ± 0.086 under setting [1] and 3.33 ± 0.27 under setting [2].
The like results for PSLAVNLADPYRSLKAPGARGPGP [JUNB] were, in that order, 4.01 ± 0.29 and 3.83 ± 0.17.
The matching figures for PSLQHLCRMSIRRVMPTQEVQELP [WSB1]: 3.34 ± 0.43 and 2.8 ± 0.35.
